# Assay results as given in patent US7888291B2, “Substrates and assays for β-secretase” (Elan Pharmaceuticals, Inc., priority 2000, dated 2011).
# Non-standard residues stand in square brackets, D forms with d. No end group written: not given here. Sta = CC(C)C[C@H](N)[C@@H](O)CC(=O)O
# Key:
# [1] = system: HEK-293 cells; test: ELISA of secreted Aβ40 and Aβ42 in medium of transfected HEK-293 cells; type: cell-based, human; settings: medium of the transfected HEK-293 cells
# Description: As one indicator of APP processing, levels of secreted Aβ from the medium of the transfected HEK-293 cells were measured. Measurements were by ELISA using antibody 6E10 (Syntek, St. Louis, Mo.) to capture Aβ and antibody 208 for Aβ40 and antibody 165 for Ap42. […] Using additional constructs in peptide activity assays, it was determined that if an Asn residue was substituted in place of a Ser to give SEVNY-↓-EVEFR (SEQ ID NO:170), this peptide has an activity that is only ⅕ than that of SEVSY-↓-EVEFR (SEQ ID NO:141; Table 4). This observation reaffirms that amino acid optimization at a certain position depends on the rest of the substrate sequence.
# [2] = molecular target: T1, Hu-Asp2 (Homo sapiens, UniProt P56817); test: Hu-Asp2 peptide substrate cleavage assay (HPLC quantitation of cleavage products); type: biochemical
# T1 construct: made in house; host or cells: High Five insect cells
# T1 sequence (P56817 46-501): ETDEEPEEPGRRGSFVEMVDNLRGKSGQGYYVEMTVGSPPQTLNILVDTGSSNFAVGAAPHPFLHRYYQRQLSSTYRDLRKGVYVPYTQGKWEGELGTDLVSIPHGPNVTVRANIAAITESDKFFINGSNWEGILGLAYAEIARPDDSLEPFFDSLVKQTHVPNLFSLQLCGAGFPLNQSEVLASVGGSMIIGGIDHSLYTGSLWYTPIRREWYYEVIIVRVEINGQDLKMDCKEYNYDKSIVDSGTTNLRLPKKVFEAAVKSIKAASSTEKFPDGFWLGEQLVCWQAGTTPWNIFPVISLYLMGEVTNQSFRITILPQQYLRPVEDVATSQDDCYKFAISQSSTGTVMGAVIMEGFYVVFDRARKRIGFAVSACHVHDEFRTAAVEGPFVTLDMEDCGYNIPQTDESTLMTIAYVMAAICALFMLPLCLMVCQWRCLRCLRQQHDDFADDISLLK
# [3] = molecular target: T1, Hu-Asp2; test: as above; type: biochemical
# Description: The peptides listed in Table 2 were designed, synthesized, and tested for activity as substrates for Hu-Asp2. 200 μM of each test substrate was incubated with 210 nM Hu-Asp2 enzyme at pH 4.5 at 37° C. for 3 hours. Of course it should be understood that these are merely exemplary assay conditions, and those of skill in the art will be able to vary these conditions and yet still provide appropriate Hu-Asp2 activity. For example, it is envisioned that the assays may be conducted at a pH range of from between about 4.0 to about 7.0. The amount of enzyme added to a given reaction mixture may also be varied and those of skill in the art will be able to perform assays defining the optimal enzyme concentrations necessary for a given assay, as such 150 nm; 200 nm; 250 nm; 300 nm or more or less enzyme may be added. Substrate concentration in those also may be varied such that an assay may use 100, 150 μM, 200 μM, 250 μM, 300 μM, 350 μM or more or less of any given; substrate. It may be that one substrate produces an optimum activity at one concentration whereas another substrate is needed to be present at a different concentration to produce an optimum cleavage rate. However, such optimizations of enzyme assay conditions is well within the skill of those in the art and will not require undue experimentation.
# In an exemplary assay to determine the cleavage of the substrates of the present invention, Asp2 was prepared from High Five™ insect cells. Generally, the assasy are run in solution at acidic pH (4.0 to 5.0), at 25-37° C. in the presence of nM or sub-nanomolar enzyme. After a suitable period of incubation the reaction is stopped at a desired time by addition of 4% trifluoracetic acid (TFA). Substrates and products are separated using reverse phase HPLC. The disappearance of the substrates and the appearance of the products are monitored by continuous measurement of the absorbance of the effluent at […]. Furthermore, if the peptide comprises a tryptophan residue, the monitoring may additionally or alternatively involve continuous monitoring of fluorescence of tryptophan fluorescence (excitation at 280 nm, emission at […]) of the effluent.
# In a typical assay, 210 nM enzyme and 200 μM substrate were incubated in 0.2 M sodium acetate at pH 4.5 in 100 μl volume at 37° C. for 1 to 3 hours. The assay was stopped by the addition of 50 μl 4% TFA to lower the pH below the active range of the enzyme. Subsequently, 100 μl of this mixture was injected into a Hewlett Packard Model 1090 HPLC equipped with a Vydac column (4.6 mm i.d.×150 mm, 5 μm) pre-equilibrated with 95% A (0.15% TFA in water), 5% B (0.15% TFA in acetonitrile). The constituents were then eluted from the column with the following linear gradients: 0-15 min: 5-50% B; 15-17 min: 50-100% B; 17-20 min: 100-5% B; 20-22 min: 5% B). The cleavage products were then quantitated using an enhanced integrator. […]
# [4] = molecular target: T2, Hu-Asp (Homo sapiens, UniProt P56817); test: Inhibition of HuAsp enzyme activity by statine-containing peptide; type: biochemical
# T2 sequence (P56817 46-501): as above
# [5] = molecular target: T2, Hu-Asp; test: Hu-Asp cleavage assay variation for substrates of SEQ ID NO:190 and 191 (Vmax, Km, pH, ionic strength, DMSO); type: biochemical; set-up: made in house; host or cells: High Five insect cells; settings: 100 mM NaOAc/HOAc, pH 4.5 (stated for SEQ ID NO:190 and 191)
# Description: In the substrates SEISY-EVEFRWKK (SEQ ID NO:190) and GLTNIKTEEISEISY-EVEFRWKK (SEQ ID NO:191), the 10 N-terminal amino acids of peptide SEISY-EVEFRWKK (SEQ ID NO:190) are identical to those of peptide SEISY-EVEFR (SEQ ID NO:152). The difference between the two peptide is the presence of a tryptophan and two lysines in the peptide of SEQ ID NO:190. […] Hu-Asp activity was tested towards SEISY-EVEFRWKK (SEQ ID NO:190) and GLTNIKTEEISEISY-EVEFRWKK (SEQ ID NO:191). […] The activity difference between the two peptides was particularly dramatic in the pH range 4.0-4.6. Specifically, it was 6.3-4.8 times higher for the peptide of SEQ ID NO:191. […] Both peptides were inhibited by increasing concentrations of DMSO. […] As expected, the N-terminus elongation increases activity. […] The development of the substrates of SEQ ID NO:190 and SEQ ID NO:191 is of great value in Hu-Asp inhibition studies and in studies concerning recombinant Hu-Asp refolding from E. coli inclusion bodies.
# In a variation of the above assay for substrates of SEQ ID NO:190 or its N-terminally extended version depicted in SEQ ID NO:191), the substrates are incubated with the enzyme to a final reaction solution volume of 200 μl (although reaction mixtures of 50-100 μl also were used) composed of 5-50 μM peptide substrate, 1-10 nM enzyme, 0.1. M sodium acetate buffer at pH 4 to 5. […]
# [6] = Solubility of peptide substrate; type: physicochemical; settings: effect of the addition of two lysines
substance,measurement,setting,value
SEVSY-↓-EVEFR (SEVSYEVEFR),production of secreted Aβ40 and Aβ42,[1],easily measurable levels of Aβ
same,activity compared with Swedish mutant peptide (SEQ ID NO:19),[2]; Table 4,1.4 fold
same,Relative rate of Cleavage,"[2]; Table 4, 200 nM enzyme, 200 μM substrate, pH 4.5, 37° C., 1 hr, SEQ ID NO:19 = 100",141.8
same,Cleavage Activity,"[2]; Table 5, 2 nM enzyme, 50 μM substrate, 25 mM Sodium acetate, pH 4.4, 37° C., 2 hr",0.16 µmol/min/mg
same,Relative rate of Cleavage,"[2]; Table 5, 2 nM enzyme, 50 μM substrate, 25 mM Sodium acetate, pH 4.4, 37° C., 2 hr, SEQ ID NO:141 = 100",100
same,activity as substrate of Hu-Asp2 (in words),[3],activity superior to the Swedish mutation
SEVN[Sta]VAEFRGGC [statine-containing peptide],inhibition of HuAsp enzyme activity,[4],shown to inhibit HuAsp enzyme activity
"SEISYEVEFRWKK [SEQ ID NO:190, SEISY-EVEFRWKK]",Km,[5],86.7 µM
same,solubility,[6],increased solubility
